Target: the molecule itself
Assay: SEC; […] (20 mM HEPES, 150 mM NaCl pH 7.2), room temperature; […]

B1: Hendra virus W protein (W^HeV), wild type (natural protein)
chain: MDKLDLVNDGLDIIDFIQKNQKEIQKTYGRSSIQQPSTKDRTRAWEDFLQSTSGEHEQAEGGMPKNDGGTEGRNVEDLSSVTSSDGTIGQRVSNTRAWAEDPDDIQLDPMVTDVVYHDHGGECTGHGPSSSPERGWSYHMSGTHDGNVRAVPDTKVLPNAPKTTVPEEVREIDLIGLEDKFASAGLNPAAVPFVPKNQSTPTEEPPVIPEYYYGSGRRGDLSKSPPRGNVNLDSIKIYTSDDEDENQLEYEDEFAKSSSEVVIDTTPEDNDSINQEEVVGDPSDQGLEHPFPLGKFPEKEETPDVRRKDSLMQDSCKRGGVPKRLPMLSEEFECSGSDDPIIQELEREGSHPGGSLRLREPPQSSGNSRNQPDRQLKTGDAASPGGVQRPGTPMPKSRIMPIKKGAQTRSLNMLGRKTCLGRRVVQPGMFADYPPTKKARVLLRRMSN
B1: binds.

From PMC13379273 (Advanced Science, 2026)
